From patent JP2018153172A (dated 2018)
Numbering of substitutions follows the chain as printed.

T1: 可溶性ヒトgp130受容体 (soluble human gp130 receptor, extracellular region of SEQ ID NO 1 with six histidines) (human, UniProt P40189 23-619)
T1 construct: Secreted from CHO DG44 cells and purified on HisTrap; no cleavage site is stated; also called 可溶性ヒトgp130受容体タンパク質; ヒト可溶性gp130受容体
T1 sequence: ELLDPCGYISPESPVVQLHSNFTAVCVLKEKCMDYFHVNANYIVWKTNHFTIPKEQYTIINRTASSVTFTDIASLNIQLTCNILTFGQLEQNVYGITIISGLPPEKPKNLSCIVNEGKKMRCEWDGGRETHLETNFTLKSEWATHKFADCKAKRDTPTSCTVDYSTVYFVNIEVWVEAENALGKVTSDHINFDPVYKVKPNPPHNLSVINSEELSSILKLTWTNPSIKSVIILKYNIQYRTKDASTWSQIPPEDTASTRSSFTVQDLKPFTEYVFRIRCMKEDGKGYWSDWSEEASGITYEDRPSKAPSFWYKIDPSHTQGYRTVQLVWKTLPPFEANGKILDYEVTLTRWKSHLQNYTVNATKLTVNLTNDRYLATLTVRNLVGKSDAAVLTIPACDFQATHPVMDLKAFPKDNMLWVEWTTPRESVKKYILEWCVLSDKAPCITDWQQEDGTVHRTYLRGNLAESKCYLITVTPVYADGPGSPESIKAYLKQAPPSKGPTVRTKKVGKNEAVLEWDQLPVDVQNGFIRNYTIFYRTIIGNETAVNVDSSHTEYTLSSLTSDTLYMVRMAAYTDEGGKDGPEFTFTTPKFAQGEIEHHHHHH

B1: ヒト化抗体A AH4−AL7 (antibody, V domains shown)
VH: QVQLVQSGAEVKKPGSSVKVSCKASGYTFTDYNMDWVRQAPGQGLEWMGDINSHSGGIIYNQKFKDRVTITADESTSTAYMELSSLRSEDTAVYYCARTYYVYGHFFDYWGQGTLVTVSS
VL: DIQMTQSPSTLSASIGDRVTITCNVSSSVTSMYWFQQRPGQAPKVLIYLTSNLASGVPSRFSGSGSGTDFTFTISSLQPEDIATYYCQQWSTNPLTFGGGTKVDIK
notes: VH on human IgG1 constant region (pFUSEss-CHIg-hG1), VL on human kappa constant region (pFUSE2ss-CLIg-hk); also called AH4-AL7
B2: ヒト化抗体A AH2−AL7 (antibody, V domains shown)
VH: QVQLQQPGAELVQPGTSVRLSCKASGYTFTDYNMDWVKQRPGQGLEWIGDINSHSGGIIYNQKFKDKATLTVDKSSSTAYMQLSSLTSEDSAVYYCTRTYYVYGHFFDYWGQGTLVTVSA
VL: B1 VL
notes: VH on human IgG1 constant region (pFUSEss-CHIg-hG1), VL on human kappa constant region (pFUSE2ss-CLIg-hk); also called AH2-AL7
B3: ヒト化抗体A AH3−AL6 (antibody, V domains shown)
VH: B1 VH with S16A, M48I, R67K, V68A, I70M, A72V, E74T, S77N
VL: EIVLTQSPATLSLSPGERATLSCNVSSSVTSMYWYQQKPGQAPRLLIYLTSNLASGIPDRFSGSGSGTDFTLTISRLEPEDFAVYYCQQWSTNPLTFGQGTKVEIK
notes: VH on human IgG1 constant region (pFUSEss-CHIg-hG1), VL on human kappa constant region (pFUSE2ss-CLIg-hk); also called AH3-AL6
B4: ヒト化抗体A AH3−AL2 (antibody, V domains shown)
VH: B1 VH with S16A, M48I, R67K, V68A, I70M, A72V, E74T, S77N
VL: DIQMTQSPSSLSASVGDRVTITCNVSSSVTSMYWYQQKQGKSPQLLVYLTSNLASGVPSRFSGSGSGTQFSLKINNLQPEDFGSYYCQQWSTNPLTFGAGTKLDLK
notes: VH on human IgG1 constant region (pFUSEss-CHIg-hG1), VL on human kappa constant region (pFUSE2ss-CLIg-hk); also called AH3-AL2
B5: ヒト化抗体A AH3−AL1 (antibody, V domains shown)
VH: B1 VH with S16A, M48I, R67K, V68A, I70M, A72V, E74T, S77N
VL: DIQMTQSPSSLSASVGDRVTITCNVSSSVTSMYWYQQKPGKAPKLLIYLTSNLASGVPARFSGSGSGTEFTLTISSLQPDDFATYYCQQWSTNPLTFGAGTKLDLK
notes: VH on human IgG1 constant region (pFUSEss-CHIg-hG1), VL on human kappa constant region (pFUSE2ss-CLIg-hk); also called AH3-AL1
B6: ヒト化抗体A AH7−AL7 (antibody, V domains shown)
VH: EVQLVQSGAEVKKPGATVKISCKASGYTFTDYNMDWVRQAPGQGLEWIGDINSHSGGIIYNQKFKDWVTMTRDTSINTAYMELRLRSDDTAVYYCARTYYVYGHFFDYWGQGTLVTVSA
VL: B1 VL
notes: VH on human IgG1 constant region (pFUSEss-CHIg-hG1), VL on human kappa constant region (pFUSE2ss-CLIg-hk); also called AH7-AL7
B7: ヒト化抗体A AH5−AL1 (antibody, V domains shown)
VH: B1 VH with Q1E, A9P, V11L, S16A, R38K, A40R, M48I, S84T, R87T, T117S
VL: B5 VL
notes: VH on human IgG1 constant region (pFUSEss-CHIg-hG1), VL on human kappa constant region (pFUSE2ss-CLIg-hk); also called AH5-AL1
B8: ヒト化抗体A AH5−AL5 (antibody, V domains shown)
VH: B1 VH with Q1E, A9P, V11L, S16A, R38K, A40R, M48I, S84T, R87T, T117S
VL: B5 VL with S9A, D17E, R18T
notes: VH on human IgG1 constant region (pFUSEss-CHIg-hG1), VL on human kappa constant region (pFUSE2ss-CLIg-hk); also called AH5-AL5
B9: ヒト化抗体A AH1−AL7 (antibody, V domains shown)
VH: B1 VH with Q1E, M48I, R67K, V68A, S77N, L115T, V116L
VL: B1 VL
notes: VH on human IgG1 constant region (pFUSEss-CHIg-hG1), VL on human kappa constant region (pFUSE2ss-CLIg-hk); also called AH1-AL7
B10: ヒト化抗体A AH8−AL7 (antibody, V domains shown)
VH: B1 VH with Q1E, S16A, Q43K, M48V, E74R, A79V, S85G, Q112K
VL: B1 VL
notes: VH on human IgG1 constant region (pFUSEss-CHIg-hG1), VL on human kappa constant region (pFUSE2ss-CLIg-hk); also called AH8-AL7
B11: ヒト化抗体A AH5−AL3 (antibody, V domains shown)
VH: B1 VH with Q1E, A9P, V11L, S16A, R38K, A40R, M48I, S84T, R87T, T117S
VL: B5 VL with S10T, A99Q, L103V, D104E, L105V
notes: VH on human IgG1 constant region (pFUSEss-CHIg-hG1), VL on human kappa constant region (pFUSE2ss-CLIg-hk); also called AH5-AL3
B12: ヒト化抗体A AH3−AL5 (antibody, V domains shown)
VH: B1 VH with S16A, M48I, R67K, V68A, I70M, A72V, E74T, S77N
VL: B5 VL with S9A, D17E, R18T
notes: VH on human IgG1 constant region (pFUSEss-CHIg-hG1), VL on human kappa constant region (pFUSE2ss-CLIg-hk); also called AH3-AL5
B13: ヒト化抗体A AH8−AL1 (antibody, V domains shown)
VH: B1 VH with Q1E, S16A, Q43K, M48V, E74R, A79V, S85G, Q112K
VL: B5 VL
notes: VH on human IgG1 constant region (pFUSEss-CHIg-hG1), VL on human kappa constant region (pFUSE2ss-CLIg-hk); also called AH8-AL1
B14: ヒト化抗体A AH3−AL4 (antibody, V domains shown)
VH: B1 VH with S16A, M48I, R67K, V68A, I70M, A72V, E74T, S77N
VL: DIQMTQSPSSLSASVGDRVTITCNVSSSVTSMYWYQQKQGKSPQLLVYLTSNLASGVPSRFSGSGSGTDFTLTISSLQPEDFATYYCQQWSTNPLTFGQGTKVEIK
notes: VH on human IgG1 constant region (pFUSEss-CHIg-hG1), VL on human kappa constant region (pFUSE2ss-CLIg-hk); also called AH3-AL4
B15: ヒト化抗体A AH3−AL3 (antibody, V domains shown)
VH: B1 VH with S16A, M48I, R67K, V68A, I70M, A72V, E74T, S77N
VL: B5 VL with S10T, A99Q, L103V, D104E, L105V
notes: VH on human IgG1 constant region (pFUSEss-CHIg-hG1), VL on human kappa constant region (pFUSE2ss-CLIg-hk); also called AH3-AL3
B16: ヒト化抗体A AH6−AL7 (antibody, V domains shown)
VH: B1 VH with S16A, M48I, S84T, R87T, L115T
VL: B1 VL
notes: VH on human IgG1 constant region (pFUSEss-CHIg-hG1), VL on human kappa constant region (pFUSE2ss-CLIg-hk); also called AH6-AL7
B17: ヒト化抗体A AH3−AL7 (antibody, V domains shown)
VH: B1 VH with S16A, M48I, R67K, V68A, I70M, A72V, E74T, S77N
VL: B1 VL
notes: VH on human IgG1 constant region (pFUSEss-CHIg-hG1), VL on human kappa constant region (pFUSE2ss-CLIg-hk); also called AH3-AL7
B18: ヒト化抗体A AH5−AL4 (antibody, V domains shown)
VH: B1 VH with Q1E, A9P, V11L, S16A, R38K, A40R, M48I, S84T, R87T, T117S
VL: B14 VL
notes: VH on human IgG1 constant region (pFUSEss-CHIg-hG1), VL on human kappa constant region (pFUSE2ss-CLIg-hk); also called AH5-AL4
B19: ヒト化抗体A AH5−AL7 (antibody, V domains shown)
VH: B1 VH with Q1E, A9P, V11L, S16A, R38K, A40R, M48I, S84T, R87T, T117S
VL: B1 VL
notes: VH on human IgG1 constant region (pFUSEss-CHIg-hG1), VL on human kappa constant region (pFUSE2ss-CLIg-hk); also called AH5-AL7
B20: ヒト化抗体A AH7−AL1 (antibody, V domains shown)
VH: B6 VH
VL: B5 VL
notes: VH on human IgG1 constant region (pFUSEss-CHIg-hG1), VL on human kappa constant region (pFUSE2ss-CLIg-hk); also called AH7-AL1
B21: ヒト化抗体A AH7−AL8 (antibody, V domains shown)
VH: B6 VH
VL: ELVLTQSPGTLSLSAGERATLSCNVSSSVTSMYWYQQKPGKAPKLLIYLTSNLASGAPSRFSGSGSGTDFTLTISSLQPDDFATYYCQQWSTNPLTFGGGTKLEIK
notes: VH on human IgG1 constant region (pFUSEss-CHIg-hG1), VL on human kappa constant region (pFUSE2ss-CLIg-hk); also called AH7-AL8
B22: ヒト化抗体A AH7−AL6 (antibody, V domains shown)
VH: B6 VH
VL: B3 VL
notes: VH on human IgG1 constant region (pFUSEss-CHIg-hG1), VL on human kappa constant region (pFUSE2ss-CLIg-hk); also called AH7-AL6
B23: ヒト化抗体A AH7−AL5 (antibody, V domains shown)
VH: B6 VH
VL: B5 VL with S9A, D17E, R18T
notes: VH on human IgG1 constant region (pFUSEss-CHIg-hG1), VL on human kappa constant region (pFUSE2ss-CLIg-hk); also called AH7-AL5
B24: ヒト化抗体A AH7−AL4 (antibody, V domains shown)
VH: B6 VH
VL: B14 VL
notes: VH on human IgG1 constant region (pFUSEss-CHIg-hG1), VL on human kappa constant region (pFUSE2ss-CLIg-hk); also called AH7-AL4
B25: ヒト化抗体A AH7−AL3 (antibody, V domains shown)
VH: B6 VH
VL: B5 VL with S10T, A99Q, L103V, D104E, L105V
notes: VH on human IgG1 constant region (pFUSEss-CHIg-hG1), VL on human kappa constant region (pFUSE2ss-CLIg-hk); also called AH7-AL3
B26: ヒト化抗体A AH2−AL2 (antibody, V domains shown)
VH: B2 VH
VL: B4 VL
notes: VH on human IgG1 constant region (pFUSEss-CHIg-hG1), VL on human kappa constant region (pFUSE2ss-CLIg-hk); also called AH2-AL2
B27: ヒト化抗体A AH2−AL8 (antibody, V domains shown)
VH: B2 VH
VL: B21 VL
notes: VH on human IgG1 constant region (pFUSEss-CHIg-hG1), VL on human kappa constant region (pFUSE2ss-CLIg-hk); also called AH2-AL8
B28: ヒト化抗体A AH2−AL6 (antibody, V domains shown)
VH: B2 VH
VL: B3 VL
notes: VH on human IgG1 constant region (pFUSEss-CHIg-hG1), VL on human kappa constant region (pFUSE2ss-CLIg-hk); also called AH2-AL6
B29: ヒト化抗体A AH7−AL2 (antibody, V domains shown)
VH: B6 VH
VL: B4 VL
notes: VH on human IgG1 constant region (pFUSEss-CHIg-hG1), VL on human kappa constant region (pFUSE2ss-CLIg-hk); also called AH7-AL2

target: T1, 可溶性ヒトgp130受容体 (soluble human gp130 …); assay: ELISA, immobilised soluble human gp130, COS1 supernatant, anti-human antibody-HRP

Row | binding result | Binder
1 | binds | B1
2 | binds | B2
3 | binds | B3
4 | binds | B4
5 | binds | B5
6 | binds | B6
7 | binds | B7
8 | binds | B8
9 | binds | B9
10 | binds | B10
11 | binds | B11
12 | binds | B12
13 | binds | B13
14 | binds | B14
15 | binds | B15
16 | binds | B16
17 | binds | B17
18 | binds | B18
19 | binds | B19
20 | binds | B20
21 | binds | B21
22 | binds | B22
23 | binds | B23
24 | binds | B24
25 | binds | B25
26 | binds | B26
27 | binds | B27
28 | binds | B28
29 | binds | B29
